Experimental data from patent US20250066441A1.
Like-named read-outs stand apart in the source and are kept apart here.

Experiments:
Assay in all cases: cell-based or functional assay
[1] = target: murine IL12 receptor complex (IL12Rβ1 and IL12Rβ2) on cells (murine) (UniProt Q60837)
[2] = target: murine IL12 receptor complex (IL12Rβ1 and IL12Rβ2) on cells (murine) (UniProt Q60837); remark: listed apart in the source
[3] = target: murine IL12 receptor complex (IL12Rβ1 and IL12Rβ2) on cells (murine) (UniProt Q60837); remark: listed apart in the source

Chain of murine IL12 receptor complex (IL12Rβ1 and IL12Rβ2) on cells (murine) (Q60837 20-738, chain 1 of 2): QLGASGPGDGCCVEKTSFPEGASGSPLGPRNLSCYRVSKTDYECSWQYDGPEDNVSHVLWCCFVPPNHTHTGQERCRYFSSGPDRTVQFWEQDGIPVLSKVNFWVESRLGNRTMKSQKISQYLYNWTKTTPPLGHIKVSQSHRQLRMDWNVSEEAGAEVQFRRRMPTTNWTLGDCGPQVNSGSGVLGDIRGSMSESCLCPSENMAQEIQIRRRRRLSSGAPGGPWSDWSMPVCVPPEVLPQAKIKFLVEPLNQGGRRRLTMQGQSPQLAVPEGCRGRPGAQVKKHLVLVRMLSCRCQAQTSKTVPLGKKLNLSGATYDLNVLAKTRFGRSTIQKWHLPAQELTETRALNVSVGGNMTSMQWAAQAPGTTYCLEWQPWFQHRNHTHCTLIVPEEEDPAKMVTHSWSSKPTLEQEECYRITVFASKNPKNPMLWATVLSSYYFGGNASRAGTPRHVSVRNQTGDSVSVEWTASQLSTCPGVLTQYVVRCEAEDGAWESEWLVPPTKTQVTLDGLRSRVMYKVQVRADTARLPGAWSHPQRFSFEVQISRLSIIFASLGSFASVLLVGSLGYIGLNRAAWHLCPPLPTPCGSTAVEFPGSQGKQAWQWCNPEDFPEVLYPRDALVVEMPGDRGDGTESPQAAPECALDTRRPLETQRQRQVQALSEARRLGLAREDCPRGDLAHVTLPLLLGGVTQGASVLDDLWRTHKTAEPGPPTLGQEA
Chain of murine IL12 receptor complex (IL12Rβ1 and IL12Rβ2) on cells (murine) (P97378 24-874, chain 2 of 2, further chain): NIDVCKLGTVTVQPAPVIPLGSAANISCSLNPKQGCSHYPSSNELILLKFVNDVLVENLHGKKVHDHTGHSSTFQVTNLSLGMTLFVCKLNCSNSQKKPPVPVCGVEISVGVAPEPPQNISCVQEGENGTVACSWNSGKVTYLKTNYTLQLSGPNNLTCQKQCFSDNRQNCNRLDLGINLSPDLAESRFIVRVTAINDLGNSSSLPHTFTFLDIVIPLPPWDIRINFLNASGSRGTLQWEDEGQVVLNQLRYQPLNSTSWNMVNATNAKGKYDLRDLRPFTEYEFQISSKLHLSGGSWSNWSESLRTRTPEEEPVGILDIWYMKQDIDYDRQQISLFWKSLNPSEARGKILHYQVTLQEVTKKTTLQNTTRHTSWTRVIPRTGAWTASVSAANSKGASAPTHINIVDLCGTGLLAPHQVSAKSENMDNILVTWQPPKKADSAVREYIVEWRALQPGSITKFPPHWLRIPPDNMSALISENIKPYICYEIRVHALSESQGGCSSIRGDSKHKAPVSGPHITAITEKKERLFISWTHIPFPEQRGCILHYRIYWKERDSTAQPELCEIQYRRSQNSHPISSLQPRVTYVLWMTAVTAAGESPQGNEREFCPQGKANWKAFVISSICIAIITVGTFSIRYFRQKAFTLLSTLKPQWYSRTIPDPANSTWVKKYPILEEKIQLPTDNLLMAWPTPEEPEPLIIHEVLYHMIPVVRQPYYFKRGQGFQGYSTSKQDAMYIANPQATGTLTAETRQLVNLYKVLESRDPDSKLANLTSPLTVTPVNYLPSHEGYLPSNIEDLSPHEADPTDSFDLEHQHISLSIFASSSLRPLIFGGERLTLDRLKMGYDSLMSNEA

B1: Recomb mIL12 (ligand, mouse)
chain 1: MWELEKDVYVVEVDWTPDAPGETVNLTCDTPEEDDITWTSDQRHGVIGSGKTLTITVKEFLDAGQYTCHKGGETLSHSHLLLHKKENGIWSTEILKNFKNKTFLKCEAPNYSGRFTCSWLVQRNMDLKFNIKSSSSSPDSRAVTCGMASLSAEKVTLDQRDYEKYSVSCQEDVTCPTAEETLPIELALEARQQNKYENYSTSFFIRDIIKPDPPKNLQMKPLKNSQVEVSWEYPDSWSTPHSYFSLKFFVRIQRKKEKMKETEEGCNQKGAFLVEKTSTEVQCKGGNVCVQAQDRYYNSSCSKWACVPCRVRS
chain 2: RVIPVSGPARCLSQSRNLLKTTDDMVKTAREKLKHYSCTAEDIDHEDITRDQTSTLKTCLPLELHKNESCLATRETSSTTRGSCLPPQKTSLMMTLCLGSIYEDLKMYQTEFQAINAALQNHNHQQIILDKGMLVAIDELMQSLNHNGETLRQKPPVGEADPYRVKMKLCILLHAFSTRVVTINRVMGYLSSA
EC50 (M), STAT3-Luc reporter, CTLL2/STAT3-Luc cells [1]: 3.71e-10 M | Max fold induction, STAT3-Luc reporter, CTLL2/STAT3-Luc cells [1]: 17.8 fold | EC50 (M), STAT3-Luc reporter, CTLL2/STAT3-Luc cells [2]: 3.46e-11 M | Fold induction at 20 nM, STAT3-Luc reporter, CTLL2/STAT3-Luc cells [2]: 18.8 fold | Max fold induction, STAT3-Luc reporter, CTLL2/STAT3-Luc cells [2]: 19.1 fold | EC50 (M), STAT3-Luc reporter, CTLL2/STAT3-Luc cells [3]: 5.56e-11 M | Fold induction at 6.25 nM, STAT3-Luc reporter, CTLL2/STAT3-Luc cells [3]: 12.2 fold | Max fold induction, STAT3-Luc reporter, CTLL2/STAT3-Luc cells [3]: 12.4 fold
